Data reported in the RNAGym collection of RNA variant scans (doi:10.7554/elife.90254).

B1: LINE1-full (parent)
chain: UACGUAGGUGGUUUUCCCCUGAUAGUGCUAAGGGGGCCUGGAAGUUUGGACUGGGCAGAGCUCAACACAGCGUGGCAAAGUGGCUGUGGCUAGACUGCCUCUCUGGAUUCCUCGUCACUCAGCAGGGCAUCUCUGAGAGAAAUGCC

Variants of: B1
Assay: self-cleavage, relative activity (ratio to wild type); higher = more cleavage; in vitro, sequencing; the parent is a self-cleaving ribozyme

Q: With G72U as the variant, how does the self-cleavage read?
A: 0.9

Q: With U39A A69U as the variant, how does the self-cleavage read?
A: 0.04

Q: For A31G U130A, which self-cleavage is on record?
A: 1.26

Q: For A22U A129G, which self-cleavage is on record?
A: 2.09

Q: Which self-cleavage does the source give for A2U A50G here?
A: 0.53

Q: With U104A U134A as the variant, how does the self-cleavage read?
A: 1.35

Q: Which self-cleavage does the source give for U23C A142U here?
A: 2.35

Q: With C18U U85A as the variant, how does the self-cleavage read?
A: 0.13

Q: With A65G U91A as the variant, how does the self-cleavage read?
A: 0.02

Q: With C17G A141G as the variant, how does the self-cleavage read?
A: 0.47

Q: Which self-cleavage does the source give for U47A G137U here?
A: 1.36

Q: Which self-cleavage does the source give for U29C C146U here?
A: 1.02

Q: With A57C U102A as the variant, how does the self-cleavage read?
A: 0.06

Q: With U62A G72A as the variant, how does the self-cleavage read?
A: 0.01

Q: With C16A A136G as the variant, how does the self-cleavage read?
A: 0.57

Q: For U45C A77G, which self-cleavage is on record?
A: 2.62

Q: Which self-cleavage does the source give for C133A A140C here?
A: 1.3

Q: Which self-cleavage does the source give for U15C G41U here?
A: 0.57

Q: Which self-cleavage does the source give for A30G U45C here?
A: 1.38

Q: With U13C A142G as the variant, how does the self-cleavage read?
A: 1.3

Q: For U87C A129G, which self-cleavage is on record?
A: 0.07

Q: With C3U A50U as the variant, how does the self-cleavage read?
A: 0.58

Q: With A64G C123U as the variant, how does the self-cleavage read?
A: 0.26

Q: Which self-cleavage does the source give for A79G A117G here?
A: 1.27

Q: With U12G A22G as the variant, how does the self-cleavage read?
A: 1.04

Q: With U12A G72A as the variant, how does the self-cleavage read?
A: 1.41

Q: With C3A A78G as the variant, how does the self-cleavage read?
A: 0.64

Q: For A24G G106A, which self-cleavage is on record?
A: 0.78

Q: Which self-cleavage does the source give for G74C U102C here?
A: 0.88

Q: For U12C C113U, which self-cleavage is on record?
A: 0.76

Q: Which self-cleavage does the source give for A64G G106U here?
A: 0.15

Q: With G33U C103U as the variant, how does the self-cleavage read?
A: 1.15

Q: For C113A C145U, which self-cleavage is on record?
A: 1.25

Q: Which self-cleavage does the source give for A2U U112C here?
A: 1.4

Q: Which self-cleavage does the source give for U29C A141G here?
A: 1.27

Q: With G35A U87A as the variant, how does the self-cleavage read?
A: 0.08

Q: With C90U U119C as the variant, how does the self-cleavage read?
A: 0.03

Q: For U23C A136G, which self-cleavage is on record?
A: 1.27

Q: For U102C A107U, which self-cleavage is on record?
A: 0.42

Q: Which self-cleavage does the source give for C37U A107G here?
A: 1.07

Q: For U5C C123U, which self-cleavage is on record?
A: 0.45

Q: Which self-cleavage does the source give for C19A U62C here?
A: 0.28

Q: Which self-cleavage does the source give for G33C U104A here?
A: 1.27

Q: Which self-cleavage does the source give for U1C U12G here?
A: 0.84

Q: With G86A G127C as the variant, how does the self-cleavage read?
A: 0.09

Q: With U73A U134C as the variant, how does the self-cleavage read?
A: 1.46

Q: With A59U A129U as the variant, how does the self-cleavage read?
A: 0.51

Q: For U12G U15C, which self-cleavage is on record?
A: 0.9

Q: Which self-cleavage does the source give for A59U U73C here?
A: 1.27

Q: For A6G G106U, which self-cleavage is on record?
A: 1.06

Q: With A42G C99U as the variant, how does the self-cleavage read?
A: 1.11

Q: With U45C G135A as the variant, how does the self-cleavage read?
A: 1.28

Q: Which self-cleavage does the source give for U85A U100A here?
A: 0.05

Q: For U26A U102C, which self-cleavage is on record?
A: 1.13

Q: Which self-cleavage does the source give for A67G G106U here?
A: 0.33

Q: Which self-cleavage does the source give for G11A G126A here?
A: 1.2

Q: Which self-cleavage does the source give for U100C A124U here?
A: 2.22

Q: For A6C U85G, which self-cleavage is on record?
A: 0.46

Q: For A78U A117C, which self-cleavage is on record?
A: 2.72

Q: Which self-cleavage does the source give for C76U U112A here?
A: 2.4

Q: Which self-cleavage does the source give for U100G G137A here?
A: 0.77

Q: Which self-cleavage does the source give for C28G A77G here?
A: 0.89

Q: With G21U U96C as the variant, how does the self-cleavage read?
A: 0.06

Q: With A24G C71U as the variant, how does the self-cleavage read?
A: 1.03

Q: For U96A U143A, which self-cleavage is on record?
A: 0.38

Q: For U46C A94C, which self-cleavage is on record?
A: 0.1

Q: Which self-cleavage does the source give for G58U U130C here?
A: 0.05

Q: With G74U U102C as the variant, how does the self-cleavage read?
A: 1.42

Q: Which self-cleavage does the source give for U39C C116U here?
A: 1.05

Q: With U96A G144A as the variant, how does the self-cleavage read?
A: 0.07

Q: Which self-cleavage does the source give for A31U A142G here?
A: 0.78

Q: Which self-cleavage does the source give for A129G C131U here?
A: 0.92

Q: For U81G C113U, which self-cleavage is on record?
A: 1.99

Q: Which self-cleavage does the source give for A94G A121G here?
A: 0.22

Q: With U13C G36C as the variant, how does the self-cleavage read?
A: 0.96

Q: Which self-cleavage does the source give for G55A G125C here?
A: 0.15

Q: For G34U A64G, which self-cleavage is on record?
A: 0.36

Q: Which self-cleavage does the source give for A24G U96C here?
A: 0.31

Q: For G11U, which self-cleavage is on record?
A: 1.56

Q: Which self-cleavage does the source give for C71A G83U here?
A: 0.58

Q: Which self-cleavage does the source give for U9G A117U here?
A: 1.07

Q: With U91C A94G as the variant, how does the self-cleavage read?
A: 0.15

Q: For U26C G74A, which self-cleavage is on record?
A: 1.17

Q: For U9C A69U, which self-cleavage is on record?
A: 0.06

Q: With G10A U102C as the variant, how does the self-cleavage read?
A: 1.39

Q: With U12A G53C as the variant, how does the self-cleavage read?
A: 1.12

Q: For A57C U130C, which self-cleavage is on record?
A: 0.18

Q: With U81C A121C as the variant, how does the self-cleavage read?
A: 1.37

Q: Which self-cleavage does the source give for G32A U81A here?
A: 1.46

Q: For U12G, which self-cleavage is on record?
A: 1.13

Q: For U62C C98U, which self-cleavage is on record?
A: 0.02

Q: With C18A U143C as the variant, how does the self-cleavage read?
A: 0.56

Q: With C18U G126U as the variant, how does the self-cleavage read?
A: 1.62

Q: For A24G A64G, which self-cleavage is on record?
A: 0.53

Q: Which self-cleavage does the source give for U15A C38A here?
A: 0.77

Q: For A77G A136G, which self-cleavage is on record?
A: 2.64

Q: With A24U A121G as the variant, how does the self-cleavage read?
A: 1.08

Q: Which self-cleavage does the source give for G32U U130A here?
A: 1.7

Q: With G82A U85A as the variant, how does the self-cleavage read?
A: 0.14

Q: Which self-cleavage does the source give for A64G C146U here?
A: 0.24

Q: For G80U A107G, which self-cleavage is on record?
A: 0.94

Q: With A117U U132A as the variant, how does the self-cleavage read?
A: 1.32

Q: For U12G A59G, which self-cleavage is on record?
A: 0.23

Q: With A67G C68U as the variant, how does the self-cleavage read?
A: 0.04

Q: With U52G U112A as the variant, how does the self-cleavage read?
A: 0.56

Q: With A50C A64U as the variant, how does the self-cleavage read?
A: 0.4

Q: With U29A A43G as the variant, how does the self-cleavage read?
A: 1.77

Q: Which self-cleavage does the source give for G7U A138G here?
A: 1.31

Q: Which self-cleavage does the source give for U29A A136G here?
A: 1.38

Q: For C3G, which self-cleavage is on record?
A: 1.34

Q: Which self-cleavage does the source give for A6U C63G here?
A: 0.19

Q: With A65U U119C as the variant, how does the self-cleavage read?
A: 0.19

Q: With A43C U112C as the variant, how does the self-cleavage read?
A: 2.1

Q: With C68G as the variant, how does the self-cleavage read?
A: 0.05

Q: Which self-cleavage does the source give for G41U U45A here?
A: 1.14

Q: For U20C U134G, which self-cleavage is on record?
A: 0.77

Q: For A30U U73A, which self-cleavage is on record?
A: 2.55

Q: For U96C A121G, which self-cleavage is on record?
A: 0.12

Q: With A107G U108G as the variant, how does the self-cleavage read?
A: 1.53

Q: With U26A G36C as the variant, how does the self-cleavage read?
A: 0.41

Q: With A57G A64U as the variant, how does the self-cleavage read?
A: 0.3

Q: For A121G U143C, which self-cleavage is on record?
A: 1.69

Q: With C90U U143C as the variant, how does the self-cleavage read?
A: 0

Q: With U96C C133U as the variant, how does the self-cleavage read?
A: 0.08

Q: With G27A A121G as the variant, how does the self-cleavage read?
A: 1.46

Q: Which self-cleavage does the source give for A117G G139U here?
A: 2.05

Q: Which self-cleavage does the source give for U29C C116A here?
A: 1.16

Q: With U39C A42U as the variant, how does the self-cleavage read?
A: 0.73

Q: Which self-cleavage does the source give for A22U U46A here?
A: 1.2

Q: With U26A G127U as the variant, how does the self-cleavage read?
A: 1.16

Q: For A107G A136G, which self-cleavage is on record?
A: 1.31

Q: Which self-cleavage does the source give for U29C A121G here?
A: 1.43

Q: For U39G U45G, which self-cleavage is on record?
A: 1.05

Q: For U12C A42G, which self-cleavage is on record?
A: 1.48

Q: With U12A A136G as the variant, how does the self-cleavage read?
A: 2.03

Q: Which self-cleavage does the source give for A31G A140G here?
A: 1.79

Q: For A24U A140U, which self-cleavage is on record?
A: 2

Q: For U13G A142G, which self-cleavage is on record?
A: 1.41

Q: Which self-cleavage does the source give for U14C A69C here?
A: 0.08

Q: With U9A A138U as the variant, how does the self-cleavage read?
A: 1.01

Q: With A43G U108A as the variant, how does the self-cleavage read?
A: 0.71

Q: With U9A A77G as the variant, how does the self-cleavage read?
A: 1.61

Q: For C19U U96A, which self-cleavage is on record?
A: 0.07

Q: Which self-cleavage does the source give for U85C U102C here?
A: 0.12

Q: With U104G as the variant, how does the self-cleavage read?
A: 1.19

Q: For A24U U46A, which self-cleavage is on record?
A: 0.91

Q: For G25U U119C, which self-cleavage is on record?
A: 1.74

Q: For G72A G122A, which self-cleavage is on record?
A: 1.6

Q: Which self-cleavage does the source give for A2G A124U here?
A: 0.88

Q: With C131U A142G as the variant, how does the self-cleavage read?
A: 1.61

Q: For U45C U91G, which self-cleavage is on record?
A: 0

Q: With U5C U20A as the variant, how does the self-cleavage read?
A: 0.84

Q: With G72A U96A as the variant, how does the self-cleavage read?
A: 0.04

Q: For A78U C84A, which self-cleavage is on record?
A: 0.18

Q: For A22G G139A, which self-cleavage is on record?
A: 1.82

Q: Which self-cleavage does the source give for U9C U134C here?
A: 1.05

Q: With A59G C118U as the variant, how does the self-cleavage read?
A: 0.02

Q: With G34C A77U as the variant, how does the self-cleavage read?
A: 1.18

Q: With G34C A77G as the variant, how does the self-cleavage read?
A: 1.64

Q: With G32U U102C as the variant, how does the self-cleavage read?
A: 1.13

Q: Which self-cleavage does the source give for U85A A117G here?
A: 0.15

Q: For U115C G126A, which self-cleavage is on record?
A: 1.85

Q: Which self-cleavage does the source give for U9C G44A here?
A: 0.69

Q: For U13C U87C, which self-cleavage is on record?
A: 0.24

Q: With A67U C90G as the variant, how does the self-cleavage read?
A: 0.04

Q: For U81A U104A, which self-cleavage is on record?
A: 1.81

Q: With G36A A138G as the variant, how does the self-cleavage read?
A: 1.53
